According to PMC6933502, “Structural and Functional Insights Into CmGH1, a Novel GH39 Family β-Glucosidase From Deep-Sea Bacterium” (Frontiers in Microbiology, 2019):
Substitutions are numbered along the chain they refer to. Names may count otherwise.

B1: CmGH1 (Croceicoccus marinus) (protein)
chain: MTSDLIAKLSVNAGEPIGNMRQLHGTSGIPAPAPGTDSVPDILDVWRNAQVTLVRSYDWVSRLDTIDNPTSLFPDWSADPSDPASYNFAATDTWVGQTRSIGANILFTIASEIPANKQPARDLAKYEQVVENIVRHYVCGWGDGFENAVSHWEFGDQPDFGKLHFSGTPDQFYEMYAAAARAVKRVDPALKVGGPCVAFPLNEGPFREGFLDYVKQQSVPLDFLSWMWYGDNSRDPMDFRTIAAEVRAIVDKYGFTDTELLLSYWSMTGIPTAKFEDFDNAAFLAAAAIYMQDSEVDKAIFFRADTGADFHYNFTDPAGIFEDDGSQNARTGAFQLVGQTLATTERLAITGGDDNGFAALAGRTADGDTIRILISNYAIPDMYLTARDRDVFEFQVPIGDQKTDMSLNVPPRRVDARSTGYSGYTLEIGHLPWGDGPHRVVRYRADRDHKGEMLDSHEGRGSSVTVQNKLAVSGVELIEITRVSS
B2: CmGH1 (Croceicoccus marinus; Q157E) (protein)
chain: B1 chain with Q157E

Tests used:
CmGH1 = target: T1, CmGH1 (Croceicoccus marinus, UniProt A0A1Z1FG87); assay: residual p-NPG hydrolysis with added glucose; format: biochemical; details: p-NPG substrate; product inhibition
T1 construct: gene A9D14_15590; N-terminal His6-SUMO tag (pSMT3) cut with Ulp1; expressed in E. coli BL21 (DE3)

purified protein = substrate: O=[N+]([O-])c1ccc(O[C@@H]2O[C@H](CO)[C@@H](O)[C@H](O)[C@H]2O)cc1; assay: purified protein; details: conditions of the Km not stated, optimum pH 9.0, 55°C

Molecule	% relative activity remaining at 200 mM (CmGH1)	Km (purified protein)	kcat (purified protein)
OC[C@H]1OC(O)[C@H](O)[C@@H](O)[C@@H]1O (some centres unmarked) [glucose]	> 30%		
B1		332 ± 38 µM	0.0358 ± 0.00135 s⁻¹
B2		354.2 ± 42 µM	0.488 ± 0.0147 s⁻¹
